The text below walks through data of paper PMC8849102.

The target of this experiment is recombinant human ICAM-5 Fc Chimera (human) (UniProt Q9UMF0). As to the kind of experiment: pull-down; ICAM-5 Fc chimera covalently attached to magnetic Dynabeads; incubated with the 1.11 (membrane-associated) or 1.20 g/cm^3 (naked) viral density fraction for 1 h at 33°C, then overnight at 4°C; beads rinsed 2x for 10 min in PBS; bound virus read as viral titer (TCID50) after PBS plus 0.1% NP-40; control: nonspecific antibody-coated beads.
Chain of UniProt Q9UMF0 (Q9UMF0 32-835, stated change not applied): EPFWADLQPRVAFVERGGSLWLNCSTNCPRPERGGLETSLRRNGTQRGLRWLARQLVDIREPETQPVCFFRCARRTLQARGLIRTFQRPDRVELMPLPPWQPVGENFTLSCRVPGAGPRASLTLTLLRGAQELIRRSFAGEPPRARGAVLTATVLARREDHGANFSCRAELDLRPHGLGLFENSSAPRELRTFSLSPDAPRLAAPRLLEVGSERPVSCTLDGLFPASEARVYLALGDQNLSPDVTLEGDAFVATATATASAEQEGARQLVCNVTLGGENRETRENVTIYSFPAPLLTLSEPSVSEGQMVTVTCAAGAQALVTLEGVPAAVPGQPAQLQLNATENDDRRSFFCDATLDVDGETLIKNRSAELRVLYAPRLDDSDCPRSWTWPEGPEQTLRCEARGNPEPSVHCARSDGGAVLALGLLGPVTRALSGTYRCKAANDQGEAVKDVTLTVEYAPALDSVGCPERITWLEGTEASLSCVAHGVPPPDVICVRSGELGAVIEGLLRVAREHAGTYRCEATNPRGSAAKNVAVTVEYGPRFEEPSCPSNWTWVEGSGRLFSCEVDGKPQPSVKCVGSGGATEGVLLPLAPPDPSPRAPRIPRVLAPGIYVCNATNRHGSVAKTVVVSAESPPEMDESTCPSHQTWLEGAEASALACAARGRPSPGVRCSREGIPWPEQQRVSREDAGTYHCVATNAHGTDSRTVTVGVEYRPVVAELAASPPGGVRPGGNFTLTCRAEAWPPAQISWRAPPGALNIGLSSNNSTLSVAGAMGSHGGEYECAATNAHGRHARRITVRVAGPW

“Enterovirus D68 (EV-D68) viral particles, strain US/MO/14-18947 (complex)”: the fold viral titer immunoprecipitated over control beads was found to be 1000 fold.
